One molecule from patent US6623738 (University of California, dated 2003) can be followed below.

Assay [1] concerns the target T1, AP fusion with the ectodomain of Sema VIa (UniProt O35464 19-649).
T1 construct: extracellular domain; also called Sema VIa ectodomain; not shown: alkaline phosphatase (AP) reporter
T1 sequence (looked up): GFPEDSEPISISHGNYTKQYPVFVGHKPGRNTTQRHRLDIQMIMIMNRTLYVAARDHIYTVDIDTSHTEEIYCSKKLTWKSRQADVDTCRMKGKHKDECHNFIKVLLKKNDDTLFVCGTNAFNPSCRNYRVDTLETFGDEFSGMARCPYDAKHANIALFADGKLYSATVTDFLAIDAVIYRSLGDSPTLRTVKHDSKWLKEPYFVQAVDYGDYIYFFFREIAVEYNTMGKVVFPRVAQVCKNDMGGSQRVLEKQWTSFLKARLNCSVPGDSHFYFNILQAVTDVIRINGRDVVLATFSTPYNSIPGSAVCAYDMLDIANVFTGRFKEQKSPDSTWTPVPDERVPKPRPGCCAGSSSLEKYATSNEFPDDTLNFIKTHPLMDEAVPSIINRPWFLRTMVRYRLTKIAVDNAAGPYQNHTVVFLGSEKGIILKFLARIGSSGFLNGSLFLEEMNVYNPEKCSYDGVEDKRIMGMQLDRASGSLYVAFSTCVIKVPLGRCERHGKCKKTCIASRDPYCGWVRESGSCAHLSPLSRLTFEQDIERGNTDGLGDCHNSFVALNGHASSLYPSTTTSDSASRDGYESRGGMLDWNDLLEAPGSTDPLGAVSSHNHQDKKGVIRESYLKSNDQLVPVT
Description: AP fusion binding to transfected COS cells.

Assay [2] addresses T2, AP fusion with Drosophila D-Sema II (Drosophila, UniProt Q24323 26-724).
T2 construct: also called Drosophila Sema II; not shown: alkaline phosphatase (AP) reporter
T2 sequence (looked up): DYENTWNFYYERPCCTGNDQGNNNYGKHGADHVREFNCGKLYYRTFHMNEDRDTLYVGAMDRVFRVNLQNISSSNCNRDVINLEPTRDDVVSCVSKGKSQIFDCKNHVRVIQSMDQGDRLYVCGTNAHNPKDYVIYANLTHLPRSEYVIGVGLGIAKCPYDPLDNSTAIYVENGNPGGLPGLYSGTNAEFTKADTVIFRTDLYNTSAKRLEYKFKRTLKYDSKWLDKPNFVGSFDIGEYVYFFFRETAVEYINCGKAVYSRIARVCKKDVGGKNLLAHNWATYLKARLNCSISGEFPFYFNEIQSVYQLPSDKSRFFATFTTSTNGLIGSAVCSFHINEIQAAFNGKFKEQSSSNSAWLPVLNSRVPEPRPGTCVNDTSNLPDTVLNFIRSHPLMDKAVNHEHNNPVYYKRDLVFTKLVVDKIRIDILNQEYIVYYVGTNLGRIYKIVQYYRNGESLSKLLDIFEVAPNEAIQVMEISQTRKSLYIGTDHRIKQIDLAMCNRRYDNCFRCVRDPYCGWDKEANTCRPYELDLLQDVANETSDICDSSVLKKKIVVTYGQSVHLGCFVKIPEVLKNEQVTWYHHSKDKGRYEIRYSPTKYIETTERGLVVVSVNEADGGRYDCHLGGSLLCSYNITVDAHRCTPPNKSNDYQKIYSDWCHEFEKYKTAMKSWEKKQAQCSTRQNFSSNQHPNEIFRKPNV
Description: AP fusion binding to transfected COS cells.

Assay [3] addresses T3, Sema E-AP fusion protein (mouse Sema E fused to alkaline phosphatase) (mouse, UniProt Q62181 21-751).
T3 construct: written as in the name; Partially purified conditioned medium; not shown: secreted alkaline phosphatase of vector APtag-4
T3 sequence (looked up): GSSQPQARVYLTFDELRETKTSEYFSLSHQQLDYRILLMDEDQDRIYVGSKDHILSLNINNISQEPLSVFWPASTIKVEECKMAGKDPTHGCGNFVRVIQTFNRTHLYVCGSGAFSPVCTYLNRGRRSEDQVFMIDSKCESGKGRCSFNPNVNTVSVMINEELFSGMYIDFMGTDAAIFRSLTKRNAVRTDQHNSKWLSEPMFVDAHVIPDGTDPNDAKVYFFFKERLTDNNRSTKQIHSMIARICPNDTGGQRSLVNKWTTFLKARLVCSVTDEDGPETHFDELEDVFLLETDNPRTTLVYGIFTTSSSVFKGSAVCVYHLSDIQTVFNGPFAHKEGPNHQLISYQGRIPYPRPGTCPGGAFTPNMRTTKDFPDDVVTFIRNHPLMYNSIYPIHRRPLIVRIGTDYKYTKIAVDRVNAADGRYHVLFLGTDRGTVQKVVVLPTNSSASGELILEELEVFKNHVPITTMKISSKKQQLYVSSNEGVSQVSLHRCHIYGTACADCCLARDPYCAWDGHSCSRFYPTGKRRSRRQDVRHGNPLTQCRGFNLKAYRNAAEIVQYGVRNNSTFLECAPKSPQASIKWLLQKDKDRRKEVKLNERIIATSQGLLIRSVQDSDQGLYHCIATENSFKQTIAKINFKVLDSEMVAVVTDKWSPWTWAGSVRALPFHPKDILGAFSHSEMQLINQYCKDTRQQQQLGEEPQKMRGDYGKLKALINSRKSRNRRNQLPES
As to the kind of experiment: AP fusion binding to transfected COS cells.

Assay [4] deals with T4, alkaline phosphatase (AP) alone (UniProt P05187 23-511).
T4 construct: Control protein; also called alkaline phosphatase protein
As to the kind of experiment: AP histochemistry on transfected COS cells.

T4 sequence (P05187 23-511 limits assumed): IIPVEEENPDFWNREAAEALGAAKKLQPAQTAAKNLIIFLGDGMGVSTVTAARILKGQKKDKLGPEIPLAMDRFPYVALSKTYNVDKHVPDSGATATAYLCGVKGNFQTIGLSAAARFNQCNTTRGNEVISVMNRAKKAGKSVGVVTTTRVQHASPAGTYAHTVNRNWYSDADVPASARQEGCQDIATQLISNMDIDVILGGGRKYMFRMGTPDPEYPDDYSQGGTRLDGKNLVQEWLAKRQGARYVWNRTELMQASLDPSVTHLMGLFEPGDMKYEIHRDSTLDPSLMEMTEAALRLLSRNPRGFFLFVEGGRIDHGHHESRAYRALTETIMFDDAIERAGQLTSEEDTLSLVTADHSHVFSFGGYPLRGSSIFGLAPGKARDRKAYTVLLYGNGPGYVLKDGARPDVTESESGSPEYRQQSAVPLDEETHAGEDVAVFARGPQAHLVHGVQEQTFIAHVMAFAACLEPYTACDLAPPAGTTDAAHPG

B1: mouse neuropilin-2(b5), myc-tagged, expressed in COS-7 cells (receptor, not shown: small tags and cut ends)
chain: RSQQDPPCGGRPNSKDAGYITSPGYPQDYPSHQNCEWIVYAPEPNQKIVLNFNPHFEIEKHDCKYDFIEIRDGDSESADLLGKHCGNIAPPTIISSGSVLYIKFTSDYARQGAGFSLRYEIFKTGSEDCSKNFTSPNGTIESPGFPEKYPHNLDCTFTILAKPRMEIILQFLTFDLEHDPLQVGEGDCKYDWLDIWDGIPHVGPLIGKYCGTKTPSKLRSSTGILSLTFHTDMAVAKDGFSARYYLIHQEPPENFQCNVPLGMESGRIANEQISASSTFSDGRWTPQQSRLHGDDNGWTPNLDSNKEYLQVDLRFLTMLTAIATQGAISRETQKGYYVKSYKLEVSTNGEDWMVYRHGKNHKIFQANNDATEVVLNKLHMPLLTRFIRIRPQTWHLGIALRLELFGCRVTDAPCSNMLGMLSGLIADTQISASSTREYLWSPSAARLVSSRSGWFPRNPQAQPGEEWLQVDLGTPKTVKGVIIQGARGGDSITAVEARAFVRKFKVSYSLNGKDWEYIQDPRTQQTKLFEGNMHYDTPDIRRFDPVPAQYVRVYPERWSPAGIGMRLEVLGCDWTDSKPTVETLGPTVKSEETTTPYPMDEDATECGENCSFEDDKDLQLPSGFNCNFDFPEETCGWVYDHAKWLRSTWISSANPNDRTFPDDKNFLKLQSDGRREGQYGRLISPPVHLPRSPVCMEFQYQAMGGHGVALQVVREASQESKLLWVIREDQGSEWKHGRIILPSYDMEYQIVFEGVIGKGRSGEISIDDIRISTDVPLENCMEPISAFAGEDFKGGTLPPGTEPTVDTVPVQPIPAYWYYVMAAGGAVLVLASVVLALVLHYHRFRYAAKKTDHSITYKTSHYTNGAPLAVEPTLTIKLEQERGSHC
notes: also called b5 isoform of neuropilin-2; SR2(b)5
Regarding B1, the binding result in assay [1] is reported as “no binding”; in assay [2], “no binding”; in assay [3], “binds”; in assay [4] it was “no binding”.
